Data reported in the supplement of paper PMC9112550, “Optimization of the antimicrobial peptide Bac7 by deep mutational scanning” (BMC Biology, 2022).

These sequences were tested on Escherichia coli TOP10 (assay: shrunken log2 fold change of peptide-encoding DNA abundance (4.5 h post-induction vs induction); higher = less antimicrobial activity (less host growth inhibition)). Conditions: time post-induction: 4.5 h; library: site-saturation at positions 5, 18, 19, 20.
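Further: peptides expressed intracellularly from a pBAD plasmid library in pooled LB shake-flask culture, induced with 0.3% L-arabinose, DNA abundance read by NGS, three biological replicates, DESeq2 with apeglm shrinkage.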

| Sequence | shrunken log2 fold change |
| --- | --- |
| RRIRDRPPRLPRPRPRPQCYPRP | 0.0803 |
| RRIRVRPPRLPRPRPRPTEEPRP | 0.0849 |
| RRIRERPPRLPRPRPRPESTPRP | 0.176 |
| RRIRLRPPRLPRPRPRPCPMPRP | -0.444 |
| RRIRARPPRLPRPRPRPWTLPRP | -0.256 |
| RRIRLRPPRLPRPRPRPTRVPRP | 0.389 |
| RRIRKRPPRLPRPRPRPRTGPRP | 0.376 |
| RRIRNRPPRLPRPRPRPTRLPRP | 0.2 |
| RRIRQRPPRLPRPRPRPMYWPRP | 0.0971 |
| RRIRRRPPRLPRPRPRPFHPPRP | 0.111 |
| RRIRYRPPRLPRPRPRPAPCPRP | -0.0799 |
| RRIRLRPPRLPRPRPRPYTTPRP | -0.488 |
| RRIRDRPPRLPRPRPRPRGPPRP | 0.366 |
| RRIRIRPPRLPRPRPRPRWFPRP | 0.555 |
| RRIRLRPPRLPRPRPRPHERPRP | 0.274 |
| RRIRARPPRLPRPRPRPPLMPRP | 0.408 |
| RRIRIRPPRLPRPRPRPERVPRP | 0.089 |
| RRIRNRPPRLPRPRPRPVWEPRP | 0.0809 |
| RRIRSRPPRLPRPRPRPVFKPRP | -0.29 |
| RRIRKRPPRLPRPRPRPPDKPRP | 0.474 |
| RRIRRRPPRLPRPRPRPEICPRP | 0.181 |
| RRIRIRPPRLPRPRPRPCRPPRP | -0.0283 |
| RRIRYRPPRLPRPRPRPWPVPRP | 0.0536 |
| RRIRTRPPRLPRPRPRPHDAPRP | -0.0483 |
| RRIRTRPPRLPRPRPRPLHPPRP | 0.375 |

| Sequence | shrunken log2 fold change |
| --- | --- |
| RRIRCRPPRLPRPRPRPEQNPRP | 0.268 |
| RRIRMRPPRLPRPRPRPVDPPRP | 0.0473 |
| RRIRLRPPRLPRPRPRPGLFPRP | 0.157 |
| RRIRERPPRLPRPRPRPAMQPRP | 0.0339 |
| RRIRRRPPRLPRPRPRPWCMPRP | -0.107 |
| RRIRYRPPRLPRPRPRPTHHPRP | -0.509 |
| RRIRHRPPRLPRPRPRPSYGPRP | -0.34 |
| RRIRERPPRLPRPRPRPMRHPRP | 0.0434 |
| RRIRCRPPRLPRPRPRPFFGPRP | 0.0829 |
| RRIRLRPPRLPRPRPRPTTIPRP | 0.255 |
| RRIRDRPPRLPRPRPRPYWTPRP | -0.195 |
| RRIRWRPPRLPRPRPRPFLLPRP | -0.0846 |
| RRIRGRPPRLPRPRPRPGYGPRP | -0.0363 |
| RRIRIRPPRLPRPRPRPRSCPRP | 0.16 |
| RRIRCRPPRLPRPRPRPTAAPRP | 1.33 |
| RRIRARPPRLPRPRPRPPRLPRP | 0.829 |
| RRIRVRPPRLPRPRPRPFNIPRP | -0.425 |
| RRIRKRPPRLPRPRPRPDLVPRP | 0.662 |
| RRIRGRPPRLPRPRPRPLMMPRP | 0.647 |
| RRIRIRPPRLPRPRPRPERYPRP | -0.175 |
| RRIRKRPPRLPRPRPRPGTTPRP | 0.157 |
| RRIRGRPPRLPRPRPRPAIGPRP | 0.591 |
| RRIRVRPPRLPRPRPRPRVNPRP | -0.159 |
| RRIRHRPPRLPRPRPRPLIYPRP | -0.569 |
| RRIRQRPPRLPRPRPRPLSVPRP | -0.539 |

| Sequence | shrunken log2 fold change |
| --- | --- |
| RRIRERPPRLPRPRPRPHTIPRP | -0.217 |
| RRIRMRPPRLPRPRPRPVSHPRP | 0.259 |
| RRIRHRPPRLPRPRPRPTQAPRP | 0.255 |
| RRIRNRPPRLPRPRPRPKNHPRP | -0.19 |
| RRIRWRPPRLPRPRPRPKIPPRP | 0.0948 |
| RRIRFRPPRLPRPRPRPNGEPRP | 0.0684 |
| RRIRSRPPRLPRPRPRPKYIPRP | -0.383 |
| RRIRMRPPRLPRPRPRPRTDPRP | -0.0668 |
| RRIRTRPPRLPRPRPRPWSRPRP | -0.0291 |
| RRIRERPPRLPRPRPRPHAQPRP | -0.0243 |
| RRIRFRPPRLPRPRPRPPAQPRP | 1.02 |
| RRIRHRPPRLPRPRPRPNFGPRP | 0.00709 |
| RRIRFRPPRLPRPRPRPIWWPRP | 0.617 |
| RRIRCRPPRLPRPRPRPMKQPRP | -0.436 |
| RRIRDRPPRLPRPRPRPTPTPRP | 0.194 |
| RRIRERPPRLPRPRPRPLSRPRP | 0.00391 |
| RRIRGRPPRLPRPRPRPAFEPRP | 0.414 |
| RRIRSRPPRLPRPRPRPWRPPRP | 0.0563 |
| RRIRFRPPRLPRPRPRPTFNPRP | -0.279 |
| RRIRVRPPRLPRPRPRPQYDPRP | -0.729 |
| RRIRLRPPRLPRPRPRPHRYPRP | 0.00601 |
| RRIRKRPPRLPRPRPRPEWMPRP | -0.0537 |
| RRIRARPPRLPRPRPRPDIAPRP | 0.668 |
| RRIRLRPPRLPRPRPRPYEGPRP | 0.0285 |
| RRIRQRPPRLPRPRPRPTPNPRP | 0.333 |

| Sequence | shrunken log2 fold change |
| --- | --- |
| RRIRDRPPRLPRPRPRPVWIPRP | -0.125 |
| RRIRWRPPRLPRPRPRPDIMPRP | 0.0439 |
| RRIRPRPPRLPRPRPRPRQVPRP | 0.474 |
| RRIRLRPPRLPRPRPRPPCCPRP | -0.0934 |
| RRIRDRPPRLPRPRPRPMLPPRP | 0.16 |
| RRIRQRPPRLPRPRPRPMVIPRP | -0.105 |
| RRIRNRPPRLPRPRPRPSGPPRP | -0.0894 |
| RRIRVRPPRLPRPRPRPMLHPRP | -0.192 |
| RRIRQRPPRLPRPRPRPDKAPRP | 0.517 |
| RRIRPRPPRLPRPRPRPNHAPRP | -0.162 |
| RRIRHRPPRLPRPRPRPYSTPRP | 0.122 |
| RRIRYRPPRLPRPRPRPHANPRP | -0.16 |
| RRIRFRPPRLPRPRPRPPTIPRP | -0.105 |
| RRIRPRPPRLPRPRPRPLMIPRP | -0.152 |
| RRIRNRPPRLPRPRPRPAIYPRP | -0.425 |
| RRIRWRPPRLPRPRPRPWAGPRP | 0.167 |
| RRIRYRPPRLPRPRPRPNRFPRP | -0.00943 |
| RRIRDRPPRLPRPRPRPILIPRP | -0.0335 |
| RRIRQRPPRLPRPRPRPSAHPRP | -0.075 |
| RRIRRRPPRLPRPRPRPTMIPRP | -0.195 |
| RRIRIRPPRLPRPRPRPQQKPRP | 0.0242 |
| RRIRGRPPRLPRPRPRPYWAPRP | 0.211 |
| RRIRMRPPRLPRPRPRPMDLPRP | -0.0207 |
| RRIRLRPPRLPRPRPRPAYSPRP | -0.354 |
| RRIRTRPPRLPRPRPRPMQIPRP | 0.08 |

| Sequence | shrunken log2 fold change |
| --- | --- |
| RRIRHRPPRLPRPRPRPNWGPRP | 0.0702 |
| RRIRPRPPRLPRPRPRPATWPRP | 0.253 |
| RRIRTRPPRLPRPRPRPAIWPRP | 0.238 |
| RRIRHRPPRLPRPRPRPNWPPRP | 0.234 |
| RRIRCRPPRLPRPRPRPKYMPRP | -0.498 |
| RRIRFRPPRLPRPRPRPMLVPRP | -0.0924 |
| RRIRLRPPRLPRPRPRPEGMPRP | 0.194 |
| RRIRGRPPRLPRPRPRPCARPRP | 0.38 |
| RRIRQRPPRLPRPRPRPIDEPRP | 3.38 |
| RRIRARPPRLPRPRPRPIVCPRP | 0.00943 |
| RRIRVRPPRLPRPRPRPEPGPRP | 0.547 |
| RRIRPRPPRLPRPRPRPRKSPRP | 0.112 |
| RRIRLRPPRLPRPRPRPPYGPRP | 0.0785 |
| RRIRHRPPRLPRPRPRPEMCPRP | -0.206 |
| RRIRYRPPRLPRPRPRPRVEPRP | -0.0337 |
| RRIRDRPPRLPRPRPRPYLDPRP | -0.0026 |
| RRIRARPPRLPRPRPRPPMCPRP | 0.00915 |
| RRIRTRPPRLPRPRPRPFNNPRP | -0.318 |
| RRIRRRPPRLPRPRPRPAGPPRP | 0.446 |
| RRIRKRPPRLPRPRPRPQYRPRP | -0.185 |
| RRIRCRPPRLPRPRPRPLHYPRP | -0.352 |
| RRIRPRPPRLPRPRPRPFTMPRP | 1.43 |
| RRIRDRPPRLPRPRPRPMRFPRP | 0.21 |
| RRIRPRPPRLPRPRPRPWPGPRP | 0.367 |
| RRIRDRPPRLPRPRPRPDKNPRP | -0.224 |

| Sequence | shrunken log2 fold change |
| --- | --- |
| RRIRHRPPRLPRPRPRPGLHPRP | -0.308 |
| RRIRRRPPRLPRPRPRPKIAPRP | 0.147 |
| RRIRERPPRLPRPRPRPPLAPRP | 0.433 |
| RRIRLRPPRLPRPRPRPPQPPRP | 0.816 |
| RRIRCRPPRLPRPRPRPDVFPRP | -0.151 |
| RRIRARPPRLPRPRPRPSGAPRP | 0.38 |
| RRIRIRPPRLPRPRPRPQKFPRP | -0.0902 |
| RRIRQRPPRLPRPRPRPCFDPRP | -0.103 |
| RRIRWRPPRLPRPRPRPAARPRP | 0.622 |
| RRIRGRPPRLPRPRPRPQFAPRP | 0.273 |
| RRIRCRPPRLPRPRPRPSMGPRP | -0.169 |
| RRIRERPPRLPRPRPRPIGIPRP | -0.123 |
| RRIRDRPPRLPRPRPRPKEKPRP | -0.0263 |
| RRIRWRPPRLPRPRPRPSALPRP | 0.678 |
| RRIRRRPPRLPRPRPRPDPMPRP | 0.326 |
| RRIRPRPPRLPRPRPRPRECPRP | 0.378 |
| RRIRARPPRLPRPRPRPKARPRP | 1.16 |
| RRIRERPPRLPRPRPRPSQEPRP | -0.0844 |
| RRIRCRPPRLPRPRPRPIRYPRP | -1.42 |
| RRIRNRPPRLPRPRPRPEQDPRP | 0.0235 |
| RRIRYRPPRLPRPRPRPGGTPRP | -0.0623 |
| RRIRRRPPRLPRPRPRPRFSPRP | 0.425 |
| RRIRIRPPRLPRPRPRPTRQPRP | -0.00609 |
| RRIRHRPPRLPRPRPRPCIMPRP | -0.0341 |
| RRIRNRPPRLPRPRPRPKYSPRP | -0.379 |
